Results as given in the supplement of paper PMC12042874.
± gives the uncertainty stated by the source.

Test: amyloid nucleation score (Sup35N fusion, yeast selection) (log enrichment); library NNK1; higher = more nucleation; inactive = no reads after selection
Method in brief: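 On medium lacking adenine and uracil, psi-negative yeast expressing peptides of 20 random codons fused to Sup35N were grown 7 days at 30°C after a 24-hour induction with 100 μM copper sulfate. Illumina sequencing of input and output plasmid inserts gave the reads, and sequences under 100 input reads were excluded. The nucleation score is the DiMSum log enrichment of output over input reads, centred on the mode score of non-aggregating sequences.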

Question: For VWIICQHGG, which amyloid nucleation score is on record?
Answer: The amyloid nucleation score was 4.09 ± 0.11.

Question: With RVSKYQYCIMYWRYRAI as the substance, how does the amyloid nucleation score read?
Answer: Its amyloid nucleation score is 0.442 ± 0.56.

Question: With QLRNLFHFYTGITDSRFLLH as the substance, how does the amyloid nucleation score read?
Answer: The amyloid nucleation score was 1.93 ± 0.52.

Question: For RLYFYGFRDSLWQFNLSEEH, which amyloid nucleation score is on record?
Answer: Its amyloid nucleation score is 7.619 ± 0.052.

Question: For RSMACVRLFDFQSQLYFRVF, which amyloid nucleation score is on record?
Answer: Its amyloid nucleation score is -0.186 ± 0.77.

Question: For GVYSGVVSRSL, which amyloid nucleation score is on record?
Answer: Its amyloid nucleation score is -0.21 ± 0.34.

Question: For DSADMLILILYAAVLLYTIF, which amyloid nucleation score is on record?
Answer: Its amyloid nucleation score is -0.278 ± 0.69.

Question: Which amyloid nucleation score does the source give for SSLVVAWF here?
Answer: Its amyloid nucleation score is 0.219 ± 0.21.

Question: For PHPPAPKK, which amyloid nucleation score is on record?
Answer: Its amyloid nucleation score is 0.067 ± 0.59.

Question: For IPNISGYPHICMESGGSLVC, which amyloid nucleation score is on record?
Answer: The amyloid nucleation score was 0.004 ± 0.61.

Question: Which amyloid nucleation score does the source give for HSCYLYTSLLIFDMCRYWFL here?
Answer: The amyloid nucleation score was 0.719 ± 0.48.

Question: With FDFTNGRISFAFCNNSCCPY as the substance, how does the amyloid nucleation score read?
Answer: The amyloid nucleation score was 2.46 ± 0.34.

Question: Which amyloid nucleation score does the source give for FTCLVNSNSPL here?
Answer: The amyloid nucleation score was 0.606 ± 0.71.

Question: For RRIRFNIRFTTCL, which amyloid nucleation score is on record?
Answer: Its amyloid nucleation score is 0.802 ± 0.74.

Question: Which amyloid nucleation score does the source give for LVLAENCR here?
Answer: Its amyloid nucleation score is -0.672 ± 0.68.

Question: For PIDGTFL, which amyloid nucleation score is on record?
Answer: Its amyloid nucleation score is -0.69 ± 0.62.

Question: With TLFPVRNTMMFLESYS as the substance, how does the amyloid nucleation score read?
Answer: The amyloid nucleation score was -0.742 ± 0.41.

Question: For YGLIGM, which amyloid nucleation score is on record?
Answer: The amyloid nucleation score was 0.24 ± 0.37.

Question: With WDAHGDIVKG as the substance, how does the amyloid nucleation score read?
Answer: Its amyloid nucleation score is 0.877 ± 1.

Question: For PKVWGGIHYFHFVTEYSTIS, which amyloid nucleation score is on record?
Answer: The amyloid nucleation score was 0.309 ± 0.29.

Question: With HFRDCVPYFMVSRSRGELGE as the substance, how does the amyloid nucleation score read?
Answer: Its amyloid nucleation score is -0.42 ± 0.75.

Question: For PYLNY, which amyloid nucleation score is on record?
Answer: The amyloid nucleation score was -0.153 ± 0.43.

Question: With NPWVWTLSIEQGRNE as the substance, how does the amyloid nucleation score read?
Answer: The amyloid nucleation score was 0.074 ± 0.34.

Question: With MLLSH as the substance, how does the amyloid nucleation score read?
Answer: Its amyloid nucleation score is 4.34 ± 0.056.

Question: Which amyloid nucleation score does the source give for KTLFMITYFGL here?
Answer: Its amyloid nucleation score is 0.85 ± 0.26.

Question: Which amyloid nucleation score does the source give for VGPAANHIGHIVRWCRPGGP here?
Answer: The amyloid nucleation score was 0.33 ± 0.5.

Question: For FTCMCH, which amyloid nucleation score is on record?
Answer: Its amyloid nucleation score is “inactive”.

Question: Which amyloid nucleation score does the source give for TDYIHLSIMIDFLGFTFQDR here?
Answer: Its amyloid nucleation score is 1.46 ± 0.43.

Question: Which amyloid nucleation score does the source give for CQIPVFENYFLHLGWSYAPL here?
Answer: Its amyloid nucleation score is 0.224 ± 1.4.

Question: For TGLSWVYSFRIEYVKVGFY, which amyloid nucleation score is on record?
Answer: Its amyloid nucleation score is 0.426 ± 0.9.

Question: For SAKGIME, which amyloid nucleation score is on record?
Answer: The amyloid nucleation score was 1.03 ± 0.45.

Question: Which amyloid nucleation score does the source give for ADFKEFECDLARPLLGIKFL here?
Answer: The amyloid nucleation score was 0.054 ± 0.91.

Question: For VISINSVLACVYTIVMR, which amyloid nucleation score is on record?
Answer: The amyloid nucleation score was -0.1 ± 0.73.

Question: Which amyloid nucleation score does the source give for DSCLSYFAILYFRLGFTRMW here?
Answer: Its amyloid nucleation score is “inactive”.

Question: For NLENLCLMILRVPVSDVMQP, which amyloid nucleation score is on record?
Answer: The amyloid nucleation score was “inactive”.

Question: For AFLGYNKIVGLNLAVLNTVG, which amyloid nucleation score is on record?
Answer: Its amyloid nucleation score is “inactive”.

Question: For PFRMQNDIVRDQYSVKLQWF, which amyloid nucleation score is on record?
Answer: Its amyloid nucleation score is 3.29 ± 0.17.

Question: Which amyloid nucleation score does the source give for SLPFVTS here?
Answer: The amyloid nucleation score was -0.319 ± 0.71.

Question: With CTEFRFF as the substance, how does the amyloid nucleation score read?
Answer: The amyloid nucleation score was 0.314 ± 0.47.

Question: For VDGGMLSHYYYC, which amyloid nucleation score is on record?
Answer: The amyloid nucleation score was 0.258 ± 0.23.

Question: With RIGLWCACMCRATTPVRGIE as the substance, how does the amyloid nucleation score read?
Answer: The amyloid nucleation score was -0.317 ± 0.46.

Question: With HMLGKASGVLFNQRAVTGG as the substance, how does the amyloid nucleation score read?
Answer: Its amyloid nucleation score is 0.696 ± 0.79.

Question: Which amyloid nucleation score does the source give for NGSYCKQILSRYVCRGECLH here?
Answer: Its amyloid nucleation score is -1.85 ± 1.4.

Question: With KKMRGTFIRFIYRLFFLRYA as the substance, how does the amyloid nucleation score read?
Answer: The amyloid nucleation score was 0.656 ± 0.5.

Question: With YVYNFMYTVNCMVEPFWLEC as the substance, how does the amyloid nucleation score read?
Answer: The amyloid nucleation score was 7.12 ± 0.048.

Question: With NDRKYLCMMRILMSNRRVLQ as the substance, how does the amyloid nucleation score read?
Answer: The amyloid nucleation score was 0.553 ± 0.3.

Question: For YPGFVCKVWIVVARKSFELE, which amyloid nucleation score is on record?
Answer: The amyloid nucleation score was “inactive”.

Question: With NMVGFILLGY as the substance, how does the amyloid nucleation score read?
Answer: The amyloid nucleation score was -0.179 ± 0.29.

Question: With MVGVLVKVREKAVMGPGQFG as the substance, how does the amyloid nucleation score read?
Answer: Its amyloid nucleation score is 0.804 ± 0.29.

Question: For TSRSSVFRVAFHCGGSDSLV, which amyloid nucleation score is on record?
Answer: Its amyloid nucleation score is 0.039 ± 0.43.

Question: With YWPGFSNRFR as the substance, how does the amyloid nucleation score read?
Answer: Its amyloid nucleation score is 0.397 ± 0.75.

Question: With RDFYNCS as the substance, how does the amyloid nucleation score read?
Answer: Its amyloid nucleation score is 0.166 ± 0.26.

Question: With TYQTVSKKSEFIMPFGLCSN as the substance, how does the amyloid nucleation score read?
Answer: Its amyloid nucleation score is -0.011 ± 0.17.

Question: Which amyloid nucleation score does the source give for FIRIVRIYSLEFALYLGVFQ here?
Answer: Its amyloid nucleation score is 4.51 ± 0.05.

Question: For AGDLGPREQGR, which amyloid nucleation score is on record?
Answer: The amyloid nucleation score was 0.171 ± 1.2.

Question: Which amyloid nucleation score does the source give for SMSCVVHRGSSASCWMFYRN here?
Answer: The amyloid nucleation score was 0.784 ± 0.37.

Question: With NFDSELFSPLMISDVREFTK as the substance, how does the amyloid nucleation score read?
Answer: Its amyloid nucleation score is 1.62 ± 0.47.

Question: With RFTLCCRMNGLVRYMSEN as the substance, how does the amyloid nucleation score read?
Answer: The amyloid nucleation score was “inactive”.

Question: With YVWMSDPSVTNHRGRLVDMG as the substance, how does the amyloid nucleation score read?
Answer: Its amyloid nucleation score is 5.02 ± 0.098.

Question: Which amyloid nucleation score does the source give for NVNEDRPAGALVLEFLNRTL here?
Answer: The amyloid nucleation score was 1.47 ± 0.69.

Question: Which amyloid nucleation score does the source give for LNTFWKIRTNMSMGTWS here?
Answer: Its amyloid nucleation score is 0.79 ± 0.65.

Question: For NCGGRVSG, which amyloid nucleation score is on record?
Answer: Its amyloid nucleation score is 8.076 ± 0.06.

Question: For GDDVRRPVVSVHNSRGYSFG, which amyloid nucleation score is on record?
Answer: Its amyloid nucleation score is -0.235 ± 0.32.

Question: For LRSIRVPP, which amyloid nucleation score is on record?
Answer: The amyloid nucleation score was -0.005 ± 0.32.

Question: With MYVFRVLASSVWKSMMLFDL as the substance, how does the amyloid nucleation score read?
Answer: The amyloid nucleation score was 0.146 ± 0.23.
